{"source": "FireProtDB (doi:10.1021/bi980431i)", "parents": {"B1": {"name": "Lysozyme C, P61626 (parent)", "chain": "MKALIVLGLVLLSVTVQGKVFERCELARTLKRLGMDGYRGISLANWMCLAKWESGYNTRATNYNAGDRSTDYGIFQINSRYWCNDGKTPGAVNACHLSCSALLQDNIADAVACAKRVVRDPQGIRAWVAWRNRCQNRDVRQYVQGCGV"}}, "note": "Values joined by “and” are separate entries in the source; they are usually repeats but may differ in a detail not shown here. Equal entries are not always repeated.", "data": [{"variants_of": "B1", "details": "Homo sapiens; pH 2.48; Thermal; DSC; glycine 0.05 M; reversible: yes; structure 1LZ1; whole UniProt chain shown", "units": {"Tm": "°C", "heat capacity change of unfolding": "kcal/mol/K", "unfolding enthalpy (calorimetric)": "kJ/mol", "unfolding enthalpy (van 't Hoff)": "kJ/mol"}, "values": [{"variant": "Y63F", "Tm": 61.4, "heat capacity change of unfolding": 0.89, "unfolding enthalpy (calorimetric)": 456, "unfolding enthalpy (van 't Hoff)": 481}]}, {"variants_of": "B1", "details": "Homo sapiens; pH 2.67; Thermal; DSC; glycine 0.05 M; reversible: yes; structure 1LZ1; whole UniProt chain shown", "units": {"Tm": "°C", "heat capacity change of unfolding": "kcal/mol/K", "unfolding enthalpy (calorimetric)": "kJ/mol", "unfolding enthalpy (van 't Hoff)": "kJ/mol"}, "values": [{"variant": "Y63F", "Tm": 64.6, "heat capacity change of unfolding": 1.34, "unfolding enthalpy (calorimetric)": 469, "unfolding enthalpy (van 't Hoff)": 490}]}, {"variants_of": "B1", "details": "Homo sapiens; pH 2.7; 64.9 °C; Thermal; DSC; glycine 0.05 M; reversible: yes; structure 1LZ1; whole UniProt chain shown", "units": {"ddG of mutation (higher = less stable)": "kJ/mol", "heat capacity change of unfolding": "kcal/mol/K"}, "values": [{"variant": "Y63F", "ddG of mutation (higher = less stable)": -0.293, "heat capacity change of unfolding": 1.1}, {"variant": "Y142F", "ddG of mutation (higher = less stable)": 1.51, "heat capacity change of unfolding": 1.46}, {"variant": "Y38F", "ddG of mutation (higher = less stable)": 2.09, "heat capacity change of unfolding": 1.35}, {"variant": "Y81F", "ddG of mutation (higher = less stable)": 1, "heat capacity change of unfolding": 1.53}, {"variant": "Y72F", "ddG of mutation (higher = less stable)": 4.02, "heat capacity change of unfolding": 1.67}, {"variant": "Y56F", "ddG of mutation (higher = less stable)": 0.795, "heat capacity change of unfolding": 1.29}]}, {"variants_of": "B1", "details": "Homo sapiens; pH 2.7; Thermal; DSC; glycine 0.05 M; reversible: yes; structure 1LZ1; whole UniProt chain shown", "units": {"change of melting temperature, mutant - wild type (higher = more stable)": "°C"}, "values": [{"variant": "Y63F", "Tm": "65.1 °C", "change of melting temperature, mutant - wild type (higher = more stable)": 0.2, "heat capacity change of unfolding": "1.1 kcal/mol/K", "unfolding enthalpy (calorimetric)": "469 kJ/mol", "unfolding enthalpy (van 't Hoff)": "494 kJ/mol"}, {"variant": "Y142F", "Tm": "63.8 °C and 64 °C", "change of melting temperature, mutant - wild type (higher = more stable)": -1.1, "heat capacity change of unfolding": "1.46 kcal/mol/K and 1.53 kcal/mol/K", "unfolding enthalpy (calorimetric)": "477 kJ/mol and 474 kJ/mol", "unfolding enthalpy (van 't Hoff)": "497 kJ/mol and 494 kJ/mol"}, {"variant": "Y38F", "Tm": "63.4 °C", "change of melting temperature, mutant - wild type (higher = more stable)": -1.5, "heat capacity change of unfolding": "1.35 kcal/mol/K", "unfolding enthalpy (calorimetric)": "467 kJ/mol", "unfolding enthalpy (van 't Hoff)": "502 kJ/mol"}, {"variant": "Y81F", "Tm": "64.2 °C", "change of melting temperature, mutant - wild type (higher = more stable)": -0.7, "heat capacity change of unfolding": "1.53 kcal/mol/K", "unfolding enthalpy (calorimetric)": "464 kJ/mol", "unfolding enthalpy (van 't Hoff)": "488 kJ/mol"}, {"variant": "Y72F", "Tm": "61.9 °C", "change of melting temperature, mutant - wild type (higher = more stable)": -3, "heat capacity change of unfolding": "1.67 kcal/mol/K", "unfolding enthalpy (calorimetric)": "461 kJ/mol", "unfolding enthalpy (van 't Hoff)": "491 kJ/mol"}, {"variant": "Y56F", "Tm": "64.3 °C", "change of melting temperature, mutant - wild type (higher = more stable)": -0.6, "heat capacity change of unfolding": "1.29 kcal/mol/K", "unfolding enthalpy (calorimetric)": "475 kJ/mol", "unfolding enthalpy (van 't Hoff)": "490 kJ/mol"}]}, {"variants_of": "B1", "details": "Homo sapiens; pH 2.71; Thermal; DSC; glycine 0.05 M; reversible: yes; structure 1LZ1; whole UniProt chain shown", "units": {"Tm": "°C", "heat capacity change of unfolding": "kcal/mol/K", "unfolding enthalpy (calorimetric)": "kJ/mol", "unfolding enthalpy (van 't Hoff)": "kJ/mol"}, "values": [{"variant": "Y63F", "Tm": 64.9, "heat capacity change of unfolding": 1.15, "unfolding enthalpy (calorimetric)": 464, "unfolding enthalpy (van 't Hoff)": 490}, {"variant": "Y56F", "Tm": 64.6, "heat capacity change of unfolding": 1.03, "unfolding enthalpy (calorimetric)": 474, "unfolding enthalpy (van 't Hoff)": 490}]}, {"variants_of": "B1", "details": "Homo sapiens; pH 2.89; Thermal; DSC; glycine 0.05 M; reversible: yes; structure 1LZ1; whole UniProt chain shown", "units": {"Tm": "°C", "heat capacity change of unfolding": "kcal/mol/K", "unfolding enthalpy (calorimetric)": "kJ/mol", "unfolding enthalpy (van 't Hoff)": "kJ/mol"}, "values": [{"variant": "Y63F", "Tm": 68.7, "heat capacity change of unfolding": 0.65, "unfolding enthalpy (calorimetric)": 485, "unfolding enthalpy (van 't Hoff)": 510}, {"variant": "Y38F", "Tm": 66.8, "heat capacity change of unfolding": 1.7, "unfolding enthalpy (calorimetric)": 482, "unfolding enthalpy (van 't Hoff)": 516}]}, {"variants_of": "B1", "details": "Homo sapiens; pH 3.13; Thermal; DSC; glycine 0.05 M; reversible: yes; structure 1LZ1; whole UniProt chain shown", "units": {"Tm": "°C", "heat capacity change of unfolding": "kcal/mol/K", "unfolding enthalpy (calorimetric)": "kJ/mol", "unfolding enthalpy (van 't Hoff)": "kJ/mol"}, "values": [{"variant": "Y63F", "Tm": 72.5, "heat capacity change of unfolding": 1.63, "unfolding enthalpy (calorimetric)": 507, "unfolding enthalpy (van 't Hoff)": 531}, {"variant": "Y72F", "Tm": 69.1, "heat capacity change of unfolding": 1.12, "unfolding enthalpy (calorimetric)": 490, "unfolding enthalpy (van 't Hoff)": 519}]}, {"variants_of": "B1", "details": "Homo sapiens; pH 2.53; Thermal; DSC; glycine 0.05 M; reversible: yes; structure 1LZ1; whole UniProt chain shown", "units": {"Tm": "°C", "heat capacity change of unfolding": "kcal/mol/K", "unfolding enthalpy (calorimetric)": "kJ/mol", "unfolding enthalpy (van 't Hoff)": "kJ/mol"}, "values": [{"variant": "Y142F", "Tm": 60.8, "heat capacity change of unfolding": 1.48, "unfolding enthalpy (calorimetric)": 452, "unfolding enthalpy (van 't Hoff)": 469}]}, {"variants_of": "B1", "details": "Homo sapiens; pH 2.68; Thermal; DSC; glycine 0.05 M; reversible: yes; structure 1LZ1; whole UniProt chain shown", "units": {"Tm": "°C", "heat capacity change of unfolding": "kcal/mol/K", "unfolding enthalpy (calorimetric)": "kJ/mol", "unfolding enthalpy (van 't Hoff)": "kJ/mol"}, "values": [{"variant": "Y142F", "Tm": 63.4, "heat capacity change of unfolding": 1.08, "unfolding enthalpy (calorimetric)": 469, "unfolding enthalpy (van 't Hoff)": 485}]}, {"variants_of": "B1", "details": "Homo sapiens; pH 3.06; Thermal; DSC; glycine 0.05 M; reversible: yes; structure 1LZ1; whole UniProt chain shown", "units": {"Tm": "°C", "heat capacity change of unfolding": "kcal/mol/K", "unfolding enthalpy (calorimetric)": "kJ/mol", "unfolding enthalpy (van 't Hoff)": "kJ/mol"}, "values": [{"variant": "Y142F", "Tm": 69.7, "heat capacity change of unfolding": 1.82, "unfolding enthalpy (calorimetric)": 507, "unfolding enthalpy (van 't Hoff)": 524}]}, {"variants_of": "B1", "details": "Homo sapiens; pH 2.58; Thermal; DSC; glycine 0.05 M; reversible: yes; structure 1LZ1; whole UniProt chain shown", "units": {"Tm": "°C", "heat capacity change of unfolding": "kcal/mol/K", "unfolding enthalpy (calorimetric)": "kJ/mol", "unfolding enthalpy (van 't Hoff)": "kJ/mol"}, "values": [{"variant": "Y38F", "Tm": 61.1, "heat capacity change of unfolding": 1.67, "unfolding enthalpy (calorimetric)": 444, "unfolding enthalpy (van 't Hoff)": 477}, {"variant": "Y81F", "Tm": 61.9, "heat capacity change of unfolding": 1.53, "unfolding enthalpy (calorimetric)": 444, "unfolding enthalpy (van 't Hoff)": 469}]}, {"variants_of": "B1", "details": "Homo sapiens; pH 3.18; Thermal; DSC; glycine 0.05 M; reversible: yes; structure 1LZ1; whole UniProt chain shown", "units": {"Tm": "°C", "heat capacity change of unfolding": "kcal/mol/K", "unfolding enthalpy (calorimetric)": "kJ/mol", "unfolding enthalpy (van 't Hoff)": "kJ/mol"}, "values": [{"variant": "Y38F", "Tm": 72, "heat capacity change of unfolding": 0.6, "unfolding enthalpy (calorimetric)": 510, "unfolding enthalpy (van 't Hoff)": 541}]}, {"variants_of": "B1", "details": "Homo sapiens; pH 3; Thermal; DSC; glycine 0.05 M; reversible: yes; structure 1LZ1; whole UniProt chain shown", "units": {"Tm": "°C", "heat capacity change of unfolding": "kcal/mol/K", "unfolding enthalpy (calorimetric)": "kJ/mol", "unfolding enthalpy (van 't Hoff)": "kJ/mol"}, "values": [{"variant": "Y81F", "Tm": 69.5, "heat capacity change of unfolding": 0.6, "unfolding enthalpy (calorimetric)": 490, "unfolding enthalpy (van 't Hoff)": 510}]}, {"variants_of": "B1", "details": "Homo sapiens; pH 3.17; Thermal; DSC; glycine 0.05 M; reversible: yes; structure 1LZ1; whole UniProt chain shown", "units": {"Tm": "°C", "heat capacity change of unfolding": "kcal/mol/K", "unfolding enthalpy (calorimetric)": "kJ/mol", "unfolding enthalpy (van 't Hoff)": "kJ/mol"}, "values": [{"variant": "Y81F", "Tm": 72.7, "heat capacity change of unfolding": 0.67, "unfolding enthalpy (calorimetric)": 515, "unfolding enthalpy (van 't Hoff)": 541}]}, {"variants_of": "B1", "details": "Homo sapiens; pH 2.69; Thermal; DSC; glycine 0.05 M; reversible: yes; structure 1LZ1; whole UniProt chain shown", "units": {"Tm": "°C", "heat capacity change of unfolding": "kcal/mol/K", "unfolding enthalpy (calorimetric)": "kJ/mol", "unfolding enthalpy (van 't Hoff)": "kJ/mol"}, "values": [{"variant": "Y72F", "Tm": 61.7, "heat capacity change of unfolding": 0.89, "unfolding enthalpy (calorimetric)": 439, "unfolding enthalpy (van 't Hoff)": 469}]}, {"variants_of": "B1", "details": "Homo sapiens; pH 2.82; Thermal; DSC; glycine 0.05 M; reversible: yes; structure 1LZ1; whole UniProt chain shown", "units": {"Tm": "°C", "heat capacity change of unfolding": "kcal/mol/K", "unfolding enthalpy (calorimetric)": "kJ/mol", "unfolding enthalpy (van 't Hoff)": "kJ/mol"}, "values": [{"variant": "Y72F", "Tm": 64, "heat capacity change of unfolding": 1.91, "unfolding enthalpy (calorimetric)": 452, "unfolding enthalpy (van 't Hoff)": 477}]}, {"variants_of": "B1", "details": "Homo sapiens; pH 2.99; Thermal; DSC; glycine 0.05 M; reversible: yes; structure 1LZ1; whole UniProt chain shown", "units": {"Tm": "°C", "heat capacity change of unfolding": "kcal/mol/K", "unfolding enthalpy (calorimetric)": "kJ/mol", "unfolding enthalpy (van 't Hoff)": "kJ/mol"}, "values": [{"variant": "Y72F", "Tm": 67, "heat capacity change of unfolding": 1.34, "unfolding enthalpy (calorimetric)": 477, "unfolding enthalpy (van 't Hoff)": 502}]}, {"variants_of": "B1", "details": "Homo sapiens; pH 2.92; Thermal; DSC; glycine 0.05 M; reversible: yes; structure 1LZ1; whole UniProt chain shown", "units": {"Tm": "°C", "heat capacity change of unfolding": "kcal/mol/K", "unfolding enthalpy (calorimetric)": "kJ/mol", "unfolding enthalpy (van 't Hoff)": "kJ/mol"}, "values": [{"variant": "Y56F", "Tm": 67.2, "heat capacity change of unfolding": 1.46, "unfolding enthalpy (calorimetric)": 490, "unfolding enthalpy (van 't Hoff)": 506}]}, {"variants_of": "B1", "details": "Homo sapiens; pH 3.1; Thermal; DSC; glycine 0.05 M; reversible: yes; structure 1LZ1; whole UniProt chain shown", "units": {"Tm": "°C", "heat capacity change of unfolding": "kcal/mol/K", "unfolding enthalpy (calorimetric)": "kJ/mol", "unfolding enthalpy (van 't Hoff)": "kJ/mol"}, "values": [{"variant": "Y56F", "Tm": 70.3, "heat capacity change of unfolding": 0.96, "unfolding enthalpy (calorimetric)": 507, "unfolding enthalpy (van 't Hoff)": 519}]}, {"variants_of": "B1", "details": "Homo sapiens; pH 3.25; Thermal; DSC; glycine 0.05 M; reversible: Yes; structure 1LZ1; whole UniProt chain shown", "units": {"Tm": "°C", "heat capacity change of unfolding": "kcal/mol/K", "unfolding enthalpy (calorimetric)": "kJ/mol", "unfolding enthalpy (van 't Hoff)": "kJ/mol"}, "values": [{"variant": "Y56F", "Tm": 72.4, "heat capacity change of unfolding": 1.12, "unfolding enthalpy (calorimetric)": 515, "unfolding enthalpy (van 't Hoff)": 528}]}]}
